PMC12880628, “X-Ray Crystal Structure of the N-Terminal Domain of Staphylococcus Aureus Cell-Cycle Protein GpsB” (Crystals, 2025)

Target: the molecule itself
Test: crystal structure; SaGpsB 1-75 at 5 mg/mL, no ligand; reservoir 1.0 M succinic acid, 0.1 M HEPES pH 7.5, 1 %w/v PEG 2000 MME; one dimer in the asymmetric unit; molecular replacement

B1: N-terminal domain (residues 1–75) of Staphylococcus aureus GpsB (domain or fragment, Staphylococcus aureus strain NCTC 8325, UniProt Q2FYI5 1-75, looked up)
chain: MSDVSLKLSAKDIYEKDFEKTMARGYRREEVDAFLDDIIADYQKMADMNNEVVKLSEENHKLKKELEELRLRVAT
notes: GpsB, Staphylococcus aureus strain NCTC 8325, Uniprot Q2FYI5, SAOUHSC_01462, residues 1-75 (N-terminal dimerization domain); Asymmetric homodimer in the crystal; also called SaGpsB; GpsB 1–75; source: E. coli BL21 (DE3), purified (Ni-NTA, SUMO protease cleavage, anion exchange, Superdex75 SEC); not shown: 10xHis, N-terminal, cleaved; SUMO, N-terminal, cleaved
Q: For B1, which “stoichiometry N” value is on record?
A: The value was 2.
